{
  "source": "patent US20080113907A1",
  "about": "“Uses Of Galectin-2” (Charite-Universitat-Smedizin Berlin, priority 2004, published 2008)",
  "molecules": {"B1": {"name": "galectin-2: β-galactoside binding lectin, non-covalent dimer with subunits of about 14 kDa; recombinant human or rat (SEQ ID NO:1, 2) (protein)", "chain": "MAGELEVKNMDMKPGSTLKITGSIADGTDGFVINLGQGTDKLNLHFNPRFSESTIVCNSLDGSNWGQEQREDHLCFSPGSEVKFTVTFESDKFKVKLPDGHELTFPNRLGHSHLSYLSVRGGFNMSSFKLKE"}},
  "key": {"PBT [1]": {"tested_on": "PBT", "assay": "Extent of apoptosis and necrosis (annexin-V, PI, DAPI staining)", "assay_type": "cell-based, human", "description": "Apoptosis was determined by monitoring fragmentation of nuclear DNA and access of annexin V to c ell surface phosphatidylserine (PS). To detect fragmentation of nuclear DNA, T cells were cultured in the presence and absence of the respective galectins, with or without blocking antibodies or further activation for 48 h. Thereafter, cells were fixed in 0.2 ml of 37% formaldehyde for 10 min at room temperature. The cells were then treated with 1 ml PBS containing 0.2% Nonidet P-40 (Sigma-Aldrich) for 2 min at room temperature and then rinsed once in PBS. The apoptotic cells were detected by staining of nuclear DNA with 4,6-diamino-2-phenylindole (DAPI) (Calbiochem). DAPI was added at a concentration of 0.2 ng/ml of PBS and cells were incubated at room temperature for 20 min in this solution. Cells were rinsed twice in PBS and the coverslips were maintained cell side down on a microscope slide and analyzed using a Zeiss Axiovert 135M microscope (Carl Zeiss, Oberkochen, Germany). To detect early phases of apoptosis, access to PS was measured. Cells were cultured as described, harvested at the respective time points, stained with FITC-labeled annexin-V and PI and analyzed by flow cytometry using the CellQuest software program (BD Pharmingen). A minimum of 15,000 cells was monitored in each case."}, "[2]": {"tested_on": "acute and chronic DSS colitis", "assay": "Dose finding studies in acute and chronic DSS colitis", "assay_type": "in vivo, BALB/c mice", "description": "Acute and chronic colitis were induced in BALB/c mice by adding 5% DSS to the drinking water for 7 days to induce acute colitis, or for 3 cycles of 7 days DSS following 7 days without DSS to induce chronic colitis, respectively (Siegmund B, Lehr H A, Fantuzzi G. Leptin: a pivotal mediator of intestinal inflammation in mice. Gastroenterology 2002; 122: 2011-2025). Animals with acute or chronic colitis were treated i.p. with either physiological NaCl as control or Gal-2 once daily (od), twice daily (bid) or three time daily (tid) for 10 days. In one experimental protocol Gal-2 and NaCl 0.9% were injected subcutaneously. Gal-2 doses ranging from 0.5-2 mg/kg body weight in individual doses and total daily doses of 3 mg/kg body weight and different dosing regimens were evaluated. Tacrolimus (1 mg/kg bodyweight), Infliximab (10 mg/kg bodyweight), prednisolone (1 mg/kg bodyweight), all well-known modulators of experimental colitis and human inflammatory bowel diseases were used as positive controls.\nPBT were isolated, stimulated with CD3 for 3 days and cytokine secretion was determined by cytometric bead array (CBA) analysis as described previously (Sturm A, Rilling K, Baumgart D C, Gargas K, Abou-Ghazale T, Raupach B, Eckert J, Schumann R R, Enders C, Sonnenborn U, Wiedenmann B, Dignass A U. Escherichia coli Nissle 1917 distinctively modulates T-cell cycling and expansion via toll-like receptor 2 signaling. Infect.Immun. 2005; 73: 1452-1465.) Mucosal recruitment of granulocytes was assessed by Myeloperoxidase activity (Rath H C, Herfarth H H, Ikeda J S, Grenther W B, Hamm T E, Jr., Balish E, Taurog J D, Hammer R E, Wilson K H, Sartor R B. Normal Luminal Bacteria, Especially Bacteroides Species, Mediate Chronic Colitis, Gastritis, and Arthritis in HLA-B27/Human beta 2 Microglobulin Transgenic Rats. Journal of Clinical Investigation 1996; 98: 945-953)."}, "T cells": {"tested_on": "T cells", "assay": "Binding of biotinylated Gal-2 to T lymphocytes (flow cytometry)", "set-up": "species or system human", "description": "To measure Gal-2 binding to T lymphocytes, aliquots of cell suspensions were kept as controls or stimulated for 1, 6, 12, 24, 48, and 72 h with anti-CD3 mAb or PMA and PHA and incubated in the presence of 5 μg/ml biotin-labeled Gal-2. Cells were then harvested, washed and stained with anti-CD3-FITC mAb and APC-labeled streptavidin (Biosource) followed by flow cytofluorometric analysis. Cells cultured in the absence of biotin-labeled Gal-2 and stained with FITC-labeled mouse IgG (BD Pharmingen) or APC-labeled streptavidin served as isotype controls. Each analysis was performed on at least 20,000 events."}, "T cells (PBT, LPT)": {"tested_on": "T cells (PBT, LPT)", "assay": "Adhesion assay to collagen type I and fibronectin", "assay_type": "cell-based, human", "description": "96 well flat-bottom plates were precoated overnight at 4° C. with 12 μg/well fibronectin (Chemicon) in DPBS, 40 μg/well collagen type I (Sigma-Aldrich) in 0.1 M acetic acid, or 3% BSA (Sigma-Aldrich) in DPBS as a control and then washed three times with DPBS. Freshly isolated T cells were fluorescently-labelled with 5 μM calcein-AM (Molecular Probes, Eugene, Oreg.) for 30 min at 37° C. in 5% CO2 at 5×10^6 cells/ml in RPMI. The cells were then washed three times with RPMI containing 5% FCS. Calcein-labelled T cells were resuspended in RPMI and 5×10^5 T cells/well were added to 96-well plates containing purified ECM components or BSA for the indicated times. Saturating concentrations of integrin-blocking mAbs (predetermined by flow cytometry) were preincubated with T cells for 30 min at 37° C. before adding T cells to the wells for the adhesion assay. Nonadherent cells were removed by a standardized washing technique that was developed to minimize background binding, which includes both an orbital and a rocking motion repeated three times with RPMI. Adhesion was quantified with a multiwell fluorescent spectrophotometer (Tecan, Groedig, Austria). For each experimental group the results were expressed as the mean percentage±SD of bound T cells from triplicate wells."}, "PBT [3]": {"tested_on": "PBT", "assay": "Mitochondrial membrane potential (rhodamine 123)", "assay_type": "cell-based, human", "settings": "CD3 activated PBT, 50 μg/ml", "source_text": "Rhodamine 123 is a fluorescent cationic dye that accumulates in the mitochondrial matrix because of its charge and solubility in both the inner mitochondrial membrane and matrix space (22). Based on the observation that accumulation of this lipophilic dye is in proportion to ΔΨ, and that deenergizing of the mitochondria decreases rhodamine 123 fluorescence (23), the inventors measured the mitochondrial membrane potential of PBT. Cells were stimulated in the presence or absence of galectin-2 with CD3 for 24 h, harvested, washed and resuspended in 1 ml of rhodamine 123 (10 μg/ml, Sigma-Aldrich) for 30 min at 37° C. in the dark. The samples were washed twice in cold PBS and fluorescence analysis by flow cytometry using an argon ion laser with an emission filter at 530 nm was performed immediately without fixation (BD FacsCalibur). PBT without stimulation and unstained samples were used as controls."}},
  "data": [
    {"molecule": "B1", "values": [
      {"measurement": "time to induction of apoptosis", "setting": "PBT [1]", "value": "6 to 12", "unit": "h"},
      {"measurement": "time course of annexin-V staining", "setting": "PBT [1]; 50 μg/ml, anti-CD3", "value": "gradual increase over 72 h"},
      {"measurement": "nuclear fragmentation (DAPI staining)", "setting": "PBT [1]; 25 and 50 μg, data not shown", "value": "induce nuclear fragmentation"},
      {"measurement": "T cell apoptosis (annexin-V)", "setting": "PBT [1]; PBT activated by anti-CD3 mAbs", "value": "induced a dose-dependent apoptosis"},
      {"measurement": "T cell necrosis (PI)", "setting": "PBT [1]; PBT activated by anti-CD3 mAbs", "value": "albeit to a much lesser extent, necrosis"},
      {"measurement": "apoptosis of T cells from patients with RA or CD", "setting": "PBT [1]; anti-CD3, 48 hours, 0, 10, 25, 50 μg/ml", "value": "induces apoptosis"},
      {"measurement": "percentage of T cell apoptosis relative to galectin-1", "setting": "PBT [1]; anti-CD3 activated PBT", "value": "higher than that induced by galectin-1"},
      {"measurement": "apoptosis in CD4 and CD8 positive T cell populations", "setting": "PBT [1]; data not shown", "value": "comparable in CD4 and CD8 positive T cell populations"},
      {"measurement": "T cell apoptosis (annexin-V)", "setting": "PBT [1]; without cell stimulation, 0, 10, 25, 50, 100 μg/ml", "value": "failed to induce T cells apoptosis"},
      {"measurement": "effect on disease activity (DAI)", "setting": "[2]; acute and chronic DSS colitis, i.p., different dosing intervals and doses", "value": "significantly reduced disease activity"},
      {"measurement": "safety and toxicity", "setting": "[2]; acute and chronic DSS model", "value": "did not reveal any abnormalities"},
      {"measurement": "myeloperoxidase, mucosal granulocyte infiltration", "setting": "[2]; data not shown", "value": "significant reduction of mucosal granulocyte infiltration"},
      {"measurement": "deaths", "setting": "[2]; doses 1-3 mg/kg body weight", "value": "no deaths were observed"},
      {"measurement": "human versus rat Gal-2, disease activity", "setting": "[2]; equivalent doses and treatment regimens", "value": "No significant differences were observed"},
      {"measurement": "improvement of disease activity", "setting": "[2]; optimal dose 2×1 mg/kg bodyweight", "value": "more than 250%"},
      {"measurement": "total daily dose range with largest benefit on disease activity", "setting": "[2]; per day", "value": "1.5-3 mg/kg bodyweight"},
      {"measurement": "effect on disease activity (DAI)", "setting": "[2]; subcutaneous (sc) administration", "value": "only in minor and not significant improvement of disease activity"},
      {"measurement": "effects compared with positive controls", "setting": "[2]; tacrolimus 1 mg/kg, infliximab 10 mg/kg, prednisolone 1 mg/kg", "value": "comparable with the potent immunomodulator tacrolimus and more potent as the effects observed for prednisolone and infliximab"},
      {"measurement": "histological analyses of intestinal injury and inflammation", "setting": "[2]; versus control animals", "value": "significant reduction of intestinal injury and inflammation"},
      {"measurement": "time bound to T cells", "setting": "T cells", "value": "more than 72 hours"},
      {"measurement": "binding to T cells after stimulation", "setting": "T cells; PMA/PHA or anti-CD3 antibody", "value": "increase in cell staining"},
      {"measurement": "binding to T cells", "setting": "T cells; unstimulated T cells", "value": "bound to unstimulated T cells in a β-galactoside-specific manner"},
      {"measurement": "cells adhering to collagen type I", "setting": "T cells (PBT, LPT); CD3 activated PBT, without galectin 22.1±3.5%", "value": "15.1±5.6", "unit": "%"},
      {"measurement": "cells adhering to fibronectin", "setting": "T cells (PBT, LPT); CD3 activated PBT, without galectin 26.3±5.6%", "value": "39.8±4.9", "unit": "%"},
      {"measurement": "attachment to fibronectin", "setting": "T cells (PBT, LPT); LPT", "value": "increasing"},
      {"measurement": "cell adhesion to collagen", "setting": "T cells (PBT, LPT); LPT", "value": "inhibited"},
      {"measurement": "mitochondrial polarization potential", "setting": "PBT [3]", "value": "clear decrease in the mitochondrial polarization potential"}
    ]}
  ]
}
